Reference: US20150017195A1 (WASHINGTON UNIVERSITY, published 2015)

T1: human coxsackie-adenovirus receptor (CAR) stably expressed on CHO-hCAR cells (human, UniProt P78310 20-365)
T1 sequence: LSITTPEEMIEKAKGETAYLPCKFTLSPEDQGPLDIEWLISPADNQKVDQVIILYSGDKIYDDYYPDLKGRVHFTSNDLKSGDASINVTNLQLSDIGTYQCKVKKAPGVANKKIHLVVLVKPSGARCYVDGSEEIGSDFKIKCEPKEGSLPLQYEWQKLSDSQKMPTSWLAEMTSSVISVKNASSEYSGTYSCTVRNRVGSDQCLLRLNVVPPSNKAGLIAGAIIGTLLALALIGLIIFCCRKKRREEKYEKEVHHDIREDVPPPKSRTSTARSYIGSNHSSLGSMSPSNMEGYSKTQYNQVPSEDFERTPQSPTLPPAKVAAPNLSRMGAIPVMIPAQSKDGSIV

B1: Ad5Luc1 control vector containing the HAdV-5 wild type fiber (other)
chain: MKRARPSEDTFNPVYPYDTETGPPTVPFLTPPFVSPNGFQESPPGVLSLRLSEPLVTSNGMLALKMGNGLSLDEAGNLTSQNVTTVSPPLKKTKSNINLEISAPLTVTSEALTVAAAAPLMVAGNTLTMQSQAPLTVHDSKLSIATQGPLTVSEGKLALQTSGPLTTTDSSTLTITASPPLTTATGSLGIDLKEPIYTQNGKLGLKYGAPLHVTDDLNTLTVATGPGVTINNTSLQTKVTGALGFDSQGNMQLNVAGGLRIDSQNRRLILDVSYPFDAQNQLNLRLGQGPLFINSAHNLDINYNKGLYLFTASNNSKKLEVNLSTAKGLMFDATAIAINAGDGLEFGSPNAPNTNPLKTKIGHGLEFDSNKAMVPKLGTGLSFDSTGAITVGNKNNDKLTLWTTPAPSPNCRLNAEKDAKLTLVLTKCGSQILATVSVLAVKGSLAPISGTVQSAHLIIRFDENGVLLNNSFLDPEYWNFRNGDLTEGTAYTNAVGFMPNLSAYPKSHGKTAKSNIVSQVYLNGDKTKPVTLTITLNGTQETGDTTPSAYSMSFSWDWSGHNYINEIFATSSYTFSYIAQE

Key:
[1] = molecular target: human coxsackie-adenovirus receptor (CAR) stably expressed on CHO-hCAR cells (human) (UniProt P78310)
[2] = molecular target: human coxsackie-adenovirus receptor (CAR) stably expressed on CHO-hCAR cells (human) (UniProt P78310); assay: cell-based or functional assay
[3] = molecular target: T1, human coxsackie-adenovirus receptor …; assay: cell-based or functional assay

Row | Molecule | IC50 (read off the curve); inhibition of luciferase gene transfer of Ad5Luc1 into CHO-hCAR cells [1] [µg/mL] | inhibition of Ad5Luc1 gene transfer to CHO-hCAR cells by knob protein at 50 µg/ml [2] [%] | luciferase activity in CHO-hCAR cells versus CHO cells (gene transfer assay) [3] [fold]
1 | recombinant HAdV-5 fiber knob protein (from UniProt P11818 387-581) | 1 | > 96 | 
2 | B1 |  |  | 80
